Results on one substance are retold here after article PMC2768864.

The target in this experiment is Ixodes ricinus contact phase inhibitor (Ir-CPI) (Ixodes ricinus) (UniProt Q9GP15). The experiment can be described thus: SPR.
Chain of Ixodes ricinus contact phase inhibitor (Ir-CPI) (Ixodes ricinus) (Q9GP15 20-86): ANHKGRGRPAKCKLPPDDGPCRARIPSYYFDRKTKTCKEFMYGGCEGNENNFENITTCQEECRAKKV

The substance plasmin (enzyme) displayed a Ka of 3.3e+08 M⁻¹; a ka1 (two-state model, formation of AB) of 900000 M⁻¹ s⁻¹; a ka2 (two-state model, forward conformation change) of 0.00582 s⁻¹; a kd1 (two-state model, dissociation of AB) of 0.00535 s⁻¹. The substance also showed a kd2 (two-state model, backward conformation change) of 0.00614 s⁻¹.
